Usually Kd stands for the constant that tells how readily two partners part at equilibrium.

One experiment concerns the target T1, Asialofetuin (UniProt P12763 19-359, asialo form (glycans without sialic acid), by its name only).
T1 construct: asialofetuin (desialylated fetuin); neither source nor species is stated; It is coated on the ELISA plate (0.1 µM in PBS); also called ASF
T1 sequence (looked up): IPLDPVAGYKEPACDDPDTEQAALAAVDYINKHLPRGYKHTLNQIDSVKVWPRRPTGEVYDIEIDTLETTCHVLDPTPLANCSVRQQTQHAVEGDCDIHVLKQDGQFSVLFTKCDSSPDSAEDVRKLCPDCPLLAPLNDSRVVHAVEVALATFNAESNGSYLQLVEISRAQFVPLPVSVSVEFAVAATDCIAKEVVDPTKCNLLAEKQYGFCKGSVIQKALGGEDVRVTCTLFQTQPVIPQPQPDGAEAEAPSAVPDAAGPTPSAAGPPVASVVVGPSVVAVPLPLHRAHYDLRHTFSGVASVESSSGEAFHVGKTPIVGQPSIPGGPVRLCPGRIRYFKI
The experiment is described as follows: ELISA; direct ELISA: ASF immobilised on microtiter plates, serial dilution of the galectin in EPBS (PBS with 2 mM EDTA, 50 µL/well); otherwise as the competitive ELISA (anti-His-tag-HRP detection). The settings on record: both partners purified. On the technique in general: In an ELISA, binding on a coated surface is turned into a signal by an enzyme label.

Experiment [1] has as its target T2, neo-glycoprotein NGP5 (LN2-Lac-HSA) (human, UniProt P02768 25-609, LN2-Lac (Galβ4GlcNAcβ3Galβ4Glc) on an ethylthioureidyl linker, coupled through squaric acid to lysine residues; approximately 5 to 9 glycans per HSA molecule (number in Table S7); positions not stated).
T2 construct: human serum albumin (HSA), carrier protein of the neo-glycoprotein; source: washed with water by ultracentrifugation
The experiment is described as follows: BLI; biotinylated galectin constructs (2 μg/mL in PBS, 0.05% Tween-20) immobilised on streptavidin biosensors; neo-glycoproteins 1.56-100 nM in solution; 25 °C, 850 rpm; association 450 s, dissociation 600 s; Langmuir 1:1 kinetic model. The settings on record: both partners purified. (BLI is a label-free optical method that tracks binding on a fibre tip over time.)

B1: Gal-4-AVI-link (natural protein, human, UniProt P56470 1-323, looked up)
chain: MAYVPAPGYQPTYNPTLPYYQPIPGGLNVGMSVYIQGVASEHMKRFFVNFVVGQDPGSDVAFHFNPRFDGWDKVVFNTLQGGKWGSEERKRSMPFKKGAAFELVFIVLAEHYKVVVNGNPFYEYGHRLPLQMVTHLQVDGDLQLQSINFIGGQPLRPQGPPMMPPYPGPGHCHQQLNSLPTMEGPPTFNPPVPYFGRLQGGLTARRTIIIKGYVPPTGKSFAINFKVGSSGDIALHINPRMGNGTVVRNSLLNGSWGSEEKKITHNPFGPGQFFDLSIRCGLDRFKVYANGQHLFDFAHRLSAFQRVDTLEIQGDVTLSYVQI
modifications: biotin on the single lysine of the AVI-tag
notes: human galectin-4, full-length tandem-repeat galectin with the native full-length peptide linker of 28 aa (2979 Da); synthetic gene (Biocat) in pET-Duet1; also called Gal-4 (AVI-tag); source: E. coli BL21(λDE3) co-expressing biotin ligase BirA, purified (Ni-NTA); not shown: His6, N-terminal, kept
Consider B1, for which binding with Asialofetuin was characterised by a dissociation constant (Kd) of 2300 ± 800 nM.

B2: Gal-9-AVI-link (monobiotinylated full-length galectin-9) (natural protein, human, UniProt O00182 1-355, looked up)
chain: MAFSGSQAPYLSPAVPFSGTIQGGLQDGLQITVNGTVLSSSGTRFAVNFQTGFSGNDIAFHFNPRFEDGGYVVCNTRQNGSWGPEERKTHMPFQKGMPFDLCFLVQSSDFKVMVNGILFVQYFHRVPFHRVDTISVNGSVQLSYISFQNPRTVPVQPAFSTVPFSQPVCFPPRPRGRRQKPPGVWPANPAPITQTVIHTVQSAPGQMFSTPAIPPMMYPHPAYPMPFITTILGGLYPSKSILLSGTVLPSAQRFHINLCSGNHIAFHLNPRFDENAVVRNTQIDNSWGSEERSLPRKMPFVRGQSFSVWILCEAHCLKVAVDGQHLFEYYHRLRNLPTINRLEVGGDIQLTHVQT
modifications: biotin on the single lysine of the AVI-tag (…)
notes: human galectin-9 (Gal-9), both CRDs with the linker peptide; prepared as described previously; source: E. coli BL21(λDE3) cotransformed with the birA gene (biotin ligase), biotinylated in vivo; see Supporting Information, Section 6; not shown: (GGS)5 linker between AVI-tag and galectin, N-terminal, kept
Regarding B2, the affinity in experiment [1], expressed as Kd, was 0.05 ± 0.01 nM.

For the origin of these results see publication PMC12344693, “Human Milk Oligosaccharides Multivalently Presented on Defined Synthetic Neo-Glycoproteins Are Nanomolar Ligands of Tandem-Repeat Galectins” (Biomacromolecules, 2025).
